{"source": "patent US6962795", "about": "(CORVAS INTERNATIONAL, dated 2005)", "binders": {"B1": {"name": "recombinant AcaNIF6 produced in Pichia pastoris (ligand)", "chain": "NEHKPMCQQNETEMPGFNDLMRLQFLAMHNGYRSKLALGHISITDESESDYDYDYGFLPDFAPSASKMRYLEYDCEAERSAYTSASDCSDSSSPPEGYDENKYIFENSNNISEAALKAMISWAKEAFNLNKTEKGVLYQPNHDISNFANLAWDTREKFGCAVVNCPLGEIDADIYDEETYATTIHVVCHYPKINKTEGEPIYKVGTPCDDCSEYTKKADNTTSADPVCIPDDGVCFIGSKADYDSKEFYRFREL", "notes": "also called mature AcaNIF6"}, "B2": {"name": "AceNIF3 produced in Pichia pastoris (pYAM7SP-AceNIF3) (ligand)", "chain": "NEHEPTCKQNNGSMTNELRRRFLRLHNGYRSILALGHVNISEESNETFLYAHRASRMRILDYDCDAEGSAYESAIKQCSSNKSSSAEYDENVYVIDNTYEDEVDPALKAISSWTSQAFNLTHAEEGIPYQWNDSVSDFANVAWDAREKLGCAVVTCDQGNTTHVVCHYGPKAANKTEPIYKVGVPCSNCTEYTRGDEEKVFCHADEGVCVINLRDLNSHLNTSLRYPPI", "notes": "Carries a hybrid N-terminus N-E-H-E-P-T-C-K-Q (first three residues from AcaNIF9); Tested as crude Pichia cell supernatant"}, "B3": {"name": "recombinant mature NIF-1FL produced in Pichia pastoris (ligand)", "chain": "NEHNLRCPQNGTEMPGFNDSIRLQFLAMHNGYRSKLALGHISITEESESDDDDDFGFLPDFAPRASKMRYLEYDCEAEKSAYMSARNCSDSSSPPEGYDENKYIFENSNNISEAALKAMISWAKEAFNLNKTKEGEGVLYRSNHDISNFANLAWDAREKFGCAVVNCPLGEIDDETNHDGETYATTIHVVCHYPKINKTEGQPIYKVGTPCDDCSEYTKKADNTTSADPVCIPDDGVCFIGSKADYDSKEFYRFREL", "modifications": "N-glycosylated (Pichia); biotinylated on oxidised carbohydrate where used as labelled tracer", "notes": "also called rNIF; recombinant NIF"}, "B4": {"name": "phages displaying mature NIF-1FL (NIF-1FL-pgIII fusion from pAN-NIF-1FL) (other)", "chain": "B3 chain", "notes": "An extra Ala codon stands between the pelB signal and NIF-1FL; also called NIF-phage; NIF-displaying phages; not shown: linker with a NotI site and a suppressed TAG amber codon between NIF-1FL and pgIII; product of filamentous phage M13 gene III (pgIII), fused at the C-terminus of NIF-1FL"}, "B5": {"name": "recombinant NIF-1FL/ΔGl1-5 produced in Pichia pastoris (ligand)", "chain": "B3 chain with N10Q, N18Q, N87Q, N110Q, N130Q", "notes": "Mature NIF-1FL with Asn to Gln at positions 10, 18, 87, 110 and 130; also called hNIF1/ΔGl1-5; AcaNIF1/ΔGl1-5"}, "B6": {"name": "recombinant NIF-1FL/Δh, Gl1-7 produced in Pichia pastoris (ligand)", "chain": "B3 chain with N10Q, N18Q, N87Q, N110Q, N130Q, N197Q, N223Q", "notes": "Mature NIF-1FL with Asn to Gln at positions 10, 18, 87, 110, 130, 197 and 223; also called hNIF1/Δh, Gl1-7; AcaNIF1/Δh, Gl1-7"}, "B7": {"name": "recombinant AcaNIF4 produced in Pichia pastoris (ligand)", "chain": "NEHKPMCERNETEMPGFNDSMRLQFLAMHNGYRSLLALGHVGISKQPIDDDYYDDDYYYFYSSYAPRASKMRYLEYDCEAEKSAYVSASNCSNISSPPEGYDENKYIFENSNNISEAALKAMISWAKEAFNLNKTEEGEGVLYRSNHDISNFANLAWDTREKFGCAVVNCPLGEIDTTSNRDGETYATAIHVVCHYPKILEKEEKQIYEVGKPCDRCSEYSKNANNITSPNWVCNDDDGVCFIGSKDDYISKEFYRFREL", "notes": "also called mature AcaNIF4"}, "B8": {"name": "recombinant AcaNIF9 produced in Pichia pastoris (ligand)", "chain": "NEHDPTCPQNEVEMEKGFDDAMRLKFLALHNGYRSKLALGHVSITEESEDYDLYDLLYAPTASKMRYLEYDCEAEKSAYESAKKCQTTAFSSTKYDENLQVIEDPRDINHAALKAIISWATEAFNLNKTGEGVVYRSILNISNFANLAWDTREKVGCAVVKCPSGNTHVVCHYPKIVKKEGKPIYSIGKPCRGCNDYASKFFCHADEGVCIIASRDLDIYGRKKYFYPFREL", "notes": "Only partially purified when tested"}}, "key": {"[1]": {"biological_target": "T1, Mac-1 integrin complex (CD11b/CD18) (human, UniProt P11215 17-1152; P05107 23-769)", "assay": "ELISA on LM2-captured Mac-1, 3D2-HRP detection, Pichia supernatant"}, "[2]": {"biological_target": "T1, Mac-1 integrin complex (CD11b/CD18)", "assay": "competition with biotinylated NIF-1FL on LM2-captured Mac-1, Pichia supernatant"}, "[3]": {"biological_target": "T1, Mac-1 integrin complex (CD11b/CD18)", "assay": "soluble NIF-1FL pre-incubated in varying amounts on LM2/Mac-1-coated wells before the phages"}, "[4]": {"biological_target": "T1, Mac-1 integrin complex (CD11b/CD18)", "assay": "panning of a 1:1 mix of pAN-NIF-1FL and fd-tet phage on a Mac-1-coated well, acid elution, colony counts"}, "[5]": {"biological_target": "T1, Mac-1 integrin complex (CD11b/CD18)", "assay": "competition ELISA with biotinylated mature NIF-1FL on LM2-captured Mac-1 (FIG. 18)"}}, "note": "Residue numbers refer to the chain shown, from its start.", "data": [{"binder": "B1", "values": [{"measurement": "binding result", "setting": "[1]", "value": "binds"}]}, {"binder": "B2", "values": [{"measurement": "binding result", "setting": "[2]", "value": "binds"}]}, {"binder": "B3", "values": [{"measurement": "binding result", "setting": "[3]", "value": "binds"}]}, {"binder": "B4", "values": [{"measurement": "fold enrichment over non-displaying fd-tet phage", "setting": "[4]", "value": 30, "unit": "fold"}]}, {"binder": "B5", "values": [{"measurement": "binding result", "setting": "[1]", "value": "binds"}]}, {"binder": "B6", "values": [{"measurement": "binding result", "setting": "[1]", "value": "binds"}]}, {"binder": "B7", "values": [{"measurement": "binding result", "setting": "[5]", "value": "binds"}]}, {"binder": "B8", "values": [{"measurement": "binding result", "setting": "[2]", "value": "binds"}]}]}
